From PMC10599522 come the findings set out here.

The target in this data set is T1, 6his-GSU1771 (Geobacter sulfurreducens (DL1 wild-type background)) (UniProt Q74CA3).
T1 sequence: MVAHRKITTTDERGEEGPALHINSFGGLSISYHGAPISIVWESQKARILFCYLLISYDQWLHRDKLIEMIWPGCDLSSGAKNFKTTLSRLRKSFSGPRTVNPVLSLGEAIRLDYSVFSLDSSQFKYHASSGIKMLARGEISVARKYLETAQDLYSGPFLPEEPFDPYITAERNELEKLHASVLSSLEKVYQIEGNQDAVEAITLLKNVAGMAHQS
The experiment in a line: EMSA. The following applies: 40 mM HEPES, 8 mM MgCl2, 50 mM KCl, 1 mM DTT, 0.05% NP-40, 0.1 mg/ml BSA, 20 ul, 30 C 30 min, pH not stated; 100 ng of each fragment; 6% native PAGE in 0.5X ….
Take “ACCATCTTCGCATCCCTGTGGAGGATCTCTGCTTTTCCTGCCACGACCGATAGCAGTGACTATTGTGTTGTGGTGGGTGTGTTGTGATGGTGTTGCGGTCATGTTTCTGCTTGTTTTTATTTTTAATTTTACCCATTTTGTGCTAAGAAAATCTAATGGCCCTATACCACTGTAAGCTCGGCTCCTCGGAG (double strand) [pulF promoter]”: the binding entry was “binds”.

“GTGGTATTCATGCACGTATTCTAATGACGGCCCGCAACCCAGGTGGAGCCGTCATCCTTTTTTTCGGATATACTGCCTGGATTCACGACTGAACCGGGACGGAAGGCAATAGCCGCACCGACGAGGATAGGATGAGCTTTCCCTTC (double strand) [gsu1704-gsu1705 intergenic region]”: the binding result is on record as “no binding”.

“AGGCTTGCTCGTCTCATGTCGCGCCGCCGTGGGAAAAAGTAGTAACCAGTAGTATATCATTTCGTCACCGTGGTTTCATTGCTTGAGCTTTTTTGCATCCGAAGCGACTCCAGCCTGTGCCCTCCGGCAATAAACCGCTTTTCCCCCGCCGGTGATGGTGGTACTCTCCTCCCATTTCGCGGAGGATGGAGTGCATGGAT (double strand) [gsu3356 promoter]”: the binding result is recorded as “binds”.

In the case of “CGCTGGATCTCCTGAAAGGGTGGGAAATCCTGAAAACAATAAGCAAATGAGAGGATGACTTACGCCAAAAGGGGGGGCTCGGGCCCCCCCTTTTTTTATGTAAATCCGATAAGTTCTATATTTGTATTGACACTCCCGTAACGATGTAGTATTCAGTAGGTAAATTAATCACAGTTAAGGTAAGGGTGTATCGCG (double strand) [gsu1771 promoter]”, the binding result is on record as “binds”.
